Reference: PMC4269863

What was measured:
[1] = molecular target: envelope glycoproteins gp120/gp41 of HIV-1 NL4.3 virus with gp41 N611Q (HIV-1 NL4.3)
[2] = molecular target: envelope glycoproteins gp120/gp41 of HIV-1 NL4.3 virus with gp41 N625Q (HIV-1 NL4.3)
[3] = molecular target: envelope glycoproteins gp120/gp41 of HIV-1 NL4.3 virus with gp41 N637Q (HIV-1 NL4.3)
[4] = molecular target: envelope glycoproteins gp120/gp41 of HIV-1 NL4.3 virus with gp41 N674Q (HIV-1 NL4.3)
[5] = molecular target: envelope glycoproteins gp120/gp41 of wild-type HIV-1 NL4.3 virus (HIV-1 NL4.3)
[6] = molecular target: envelope glycoproteins gp120/gp41 of HIV-1 NL4.3 virus with gp41 N611Q/N637Q (HIV-1 NL4.3)
[7] = molecular target: envelope glycoproteins gp120/gp41 of HIV-1 NL4.3 virus with gp41 N611Q/N637Q/N674Q (HIV-1 NL4.3)
[8] = molecular target: envelope glycoproteins gp120/gp41 of HIV-1 NL4.3 virus with gp41 N625Q/N637Q (HIV-1 NL4.3)
[9] = molecular target: envelope glycoproteins gp120/gp41 of HIV-1 NL4.3 virus with gp41 N625Q/N637Q/N674Q (HIV-1 NL4.3)
[10] = molecular target: envelope glycoproteins gp120/gp41 of HIV-1 NL4.3 virus with gp41 N625Q/N674Q (HIV-1 NL4.3)
[11] = molecular target: envelope glycoproteins gp120/gp41 of HIV-1 NL4.3 virus with gp41 N637Q/N674Q (HIV-1 NL4.3)
[12] = molecular target: envelope glycoproteins gp120/gp41 of HIV-1 NL4.3 virus with gp41 N674D (HIV-1 NL4.3)
[13] = molecular target: HIV-1 surface envelope glycoprotein gp120 (immobilised for SPR) (HIV-1 (strain not stated)) (UniProt P04578); assay: SPR; gp120 and gp41 covalently immobilised by amine coupling on a CM4 chip (about 115 and 45 RU), HSA as control surface; CBAs injected as two-fold dilutions; Biacore T200, 25°C, HBS-P (10 mM HEPES, 150 mM NaCl, 0.05% surfactant P20, pH 7.4) with 10 mM CaCl2; 1:1 Langmuir model
[14] = molecular target: HIV-1 transmembrane envelope glycoprotein gp41 (immobilised for SPR) (HIV-1 (strain not stated)) (UniProt P04578); assay: as above
[15] = molecular target: soluble CD4 (UniProt P01730); assay: ELISA; 0.5 μg soluble CD4 coated on maxisorp strips; about 48 ng p24 of virus lysed with Triton-X100 added 1 h at 37°C; bound gp120 detected with sheep antibody D7324; normalised to WT∆Env virus, relative to WT (100%)

actinohivin, sequence (Q9KWN0 47-160): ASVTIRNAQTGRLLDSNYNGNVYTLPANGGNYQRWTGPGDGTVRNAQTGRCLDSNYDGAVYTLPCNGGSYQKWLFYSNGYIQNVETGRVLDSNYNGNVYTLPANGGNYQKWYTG

Substance | EC50 of inhibition of cell-free virus infection of C8166 cells (eGFP, flow cytometry, 72 h) [1] | EC50 of inhibition of cell-free virus infection of C8166 cells (eGFP, flow cytometry, 72 h) [2] | EC50 of inhibition of cell-free virus infection of C8166 cells (eGFP, flow cytometry, 72 h) [3] | EC50 of inhibition of cell-free virus infection of C8166 cells (eGFP, flow cytometry, 72 h) [4] | EC50 of inhibition of cell-free virus infection of C8166 cells (eGFP, flow cytometry, 72 h) [5] | EC50 of inhibition of cell-free virus infection of C8166 cells (eGFP, flow cytometry, 72 h) [6] | EC50 of inhibition of cell-free virus infection of C8166 cells (eGFP, flow cytometry, 72 h) [7] | EC50 of inhibition of cell-free virus infection of C8166 cells (eGFP, flow cytometry, 72 h) [8] | EC50 of inhibition of cell-free virus infection of C8166 cells (eGFP, flow cytometry, 72 h) [9] | EC50 of inhibition of cell-free virus infection of C8166 cells (eGFP, flow cytometry, 72 h) [10] | EC50 of inhibition of cell-free virus infection of C8166 cells (eGFP, flow cytometry, 72 h) [11] | EC50 of inhibition of cell-free virus infection of C8166 cells (eGFP, flow cytometry, 72 h) [12] | Kd [13] | Kd [14] | binding efficiency, percent of WT [15]
actinohivin (from UniProt Q9KWN0 47-160) (natural protein) | 5.4 nM | 8.1 nM | 15 nM | 8.3 nM | 5.2 nM | 3 nM | 3.6 nM | 3.8 nM | 3.2 nM | 3.2 nM | 4.3 nM | 2.1 nM | 14 nM | 2 nM | 
envelope glycoproteins gp120/gp41 of HIV-1 NL4.3 virus with gp41 N625Q (complex) |  |  |  |  |  |  |  |  |  |  |  |  |  |  | 130 % of WT
Hippeastrum hybrid agglutinin (natural protein) | 1.6 nM | 1.4 nM | 3.7 nM | 1.3 nM | 0.9 nM | 2.7 nM | 2.8 nM | 1.4 nM | 2.1 nM | 1.3 nM | 1.6 nM | 1.9 nM | 0.5 nM | 0.4 nM | 
Urtica dioica agglutinin (natural protein) | 32 nM | 27 nM | 57 nM | 32 nM | 25 nM | 63 nM | 52 nM | 51 nM | 35 nM | 30 nM | 28 nM | 34 nM | 9 nM | 3.7 nM | 
